Reference: patent publication US12365732 (23ANDME, dated 2025)

What was measured:
[1] = target: T1, recombinant hu-CD96 (M1-M503-polyHis) (human, UniProt P40200 22-519); assay: ELISA, blocks hu-CD96-his binding to coated CD155-hFc
T1 construct: also called hu-CD96-his
T1 sequence: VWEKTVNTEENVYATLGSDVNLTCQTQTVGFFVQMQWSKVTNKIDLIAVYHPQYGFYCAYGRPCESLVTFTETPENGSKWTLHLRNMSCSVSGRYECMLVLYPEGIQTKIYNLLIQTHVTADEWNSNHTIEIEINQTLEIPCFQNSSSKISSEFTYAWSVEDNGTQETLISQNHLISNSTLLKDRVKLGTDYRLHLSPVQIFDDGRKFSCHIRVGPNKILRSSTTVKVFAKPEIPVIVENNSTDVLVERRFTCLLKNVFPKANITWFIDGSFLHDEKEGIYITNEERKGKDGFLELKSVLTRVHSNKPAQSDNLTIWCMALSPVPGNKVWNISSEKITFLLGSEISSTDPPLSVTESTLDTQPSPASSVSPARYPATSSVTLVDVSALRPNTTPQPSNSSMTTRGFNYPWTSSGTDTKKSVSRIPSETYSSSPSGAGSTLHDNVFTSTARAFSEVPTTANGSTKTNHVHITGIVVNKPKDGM
Procedure: CD96 binding of purified hybridoma antibodies: The hu-CD96 and cy-CD96 antigen binding ELISA was performed on the purified hybridoma antibodies. Briefly, 96-well MAXISORP® flat bottom plates (Thermo Fisher Scientific, Waltham, MA; Cat #439454) were coated overnight at 4° C. with 0.5 µg/mL of hu-CD96D1 D3-hFc and cynomolgus monkey CD96D1 D3-hFc in PBS. After removing the coating solution, unspecific binding was blocked by PBS containing 1% bovine serum albumin (blocking buffer) and incubation at room temperature for one hour. Plates were then washed three times with PBS and 0.05% TWEEN®-20 (wash buffer). Serial dilution of purified antibodies in PBS containing 0.5% BSA and 0.05% Tween 20 (ELISA buffer) was added to individual wells followed by incubation at room temperature for one hour with agitation. Plates were washed three times with wash buffer, then 100 µL/well of anti-mouse IgG-HRP (Thermo Fisher Scientific, Waltham, MA; Cat #626520) in ELISA buffer was added. […] Enzymatic color development was stopped with 50 µL/well of TMB stop solution (VWR/Avantor, Radnor, PA, USA; Cat #95059-200). Plates were analyzed with a SpectraMax i3X plate reader (Molecular Devices LLC, San Jose, CA, USA) at 450 nm.
CD155 receptor blocking of purified hybridoma antibodies: Human CD155 blocking ELISA was performed on purified hybridoma antibodies following the same protocol as described for CD96 (above), except that serial dilution of purified antibodies 50 µL/well (starting at 1 µM, 1:5 dilution) in assay buffer was added into the reaction.

[2] = target: T2, hu-CD96 (soluble, isoform 2 extracellular domain) (human, UniProt P40200 22-516, biotinylated in Octet and blocking ELISA); assay: ELISA, blocks biotin-CD96 binding to coated hu-CD155-mFc
T2 construct: the assays name only hu-CD96; also called hCD96; biotinylated hu-CD96
T2 sequence: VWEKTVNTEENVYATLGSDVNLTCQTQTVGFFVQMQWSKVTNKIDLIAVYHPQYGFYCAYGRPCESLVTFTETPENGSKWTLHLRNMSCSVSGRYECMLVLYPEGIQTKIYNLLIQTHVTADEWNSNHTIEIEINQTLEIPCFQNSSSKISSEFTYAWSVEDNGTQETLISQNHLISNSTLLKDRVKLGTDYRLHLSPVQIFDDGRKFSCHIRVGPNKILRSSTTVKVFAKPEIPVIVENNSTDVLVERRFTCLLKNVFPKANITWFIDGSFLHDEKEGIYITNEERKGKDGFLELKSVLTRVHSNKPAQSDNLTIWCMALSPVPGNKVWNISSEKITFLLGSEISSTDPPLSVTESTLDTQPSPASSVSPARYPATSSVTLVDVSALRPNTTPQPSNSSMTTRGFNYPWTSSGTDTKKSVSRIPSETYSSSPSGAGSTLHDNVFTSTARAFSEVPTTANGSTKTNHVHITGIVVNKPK
Procedure: The selected 5 affinity matured Fab variants of mAb1.v7 Fab were assayed for blocking of human CD155 (hu-CD155) receptor by ELISA as follows. Briefly, 96-well MAXISORP® flat bottom plates (Thermofisher, Cat #439454) were coated overnight at 4° C. with 2 µg/mL goat anti-mouse Fc (Thermofisher, Cat #31168) in PBS. After removing the coating solution, unspecific binding was blocked with PBS containing 1% bovine serum albumin (BSA) and incubation at room temperature for one hour. Plates were then washed five times in PBS with 0.05% TWEEN®-20 (wash buffer) and added […] hu-CD155-mFc in PBS for 1 hour in room temperature. During blocking period, 50 µL/well of 4 nM biotinylated hu-CD96 or 40 nM biotinylated cy-CD96 with serial dilution of the Fab variants 50 µL/well (starting at 2 µM, 1:3 dilution) for two hours at room temperature with PBS containing 0.5% BSA and 0.05% Tween 20 (ELISA buffer) in NUNC F plate (Thermofisher, Cat #269620). Then transferred the antigen-antibody mix solution 80 µL/well into hu-CD155-mFc coated wells at room temperature for 15 min. Plates were then washed with wash buffer to which was added 50 µL/well Streptavidin poly-HRP (Thermofisher, Cat #21140) diluted 1:5000 in ELISA buffer at room temperature for one hour with agitation. […] Enzymatic color development was stopped with 50 µL/well of TMB stop solution (VWR, Cat #95059-200). Plates were analyzed with a SpectraMax i3X plate reader (Molecular Devices) at 450 nm. […] The blocking $IC50$ values for the mAbv1.7 and the 5 selected affinity matured Fab variants (mAb1.v7.2, mAb1.v7.9, mAb1.v7.16, mAb1.v7.48, mAb1.v7.70) are summarized in Table 10 (above).

B1: 7E5, purified hybridoma antibody (antibody, V domains shown)
VH: QVQLKESGPGLVAPSQSLSIICTVSGFSLTNYGIHWIRQPPGKGLEWLGIIWAGGSTNYNSALMSRLTISKDNSKSQVFLKMNSLQTNDTAIYYCARVSMMGFAYWGQGTLVTVSA
VL: QAVVTQESALTTSPGETVTLTCRSSTGAVTTSNYANWVQEKPDHLFTGLIGGTNNRAPGVPARFSGSLIGDKAALTITGAQTEDEAIYFCSLWYGSHWVFGGGTKLTVL
notes: murine hybridoma IgG
Q: How did the IC50 [1] turn out when B1 was run?
A: The IC50 was 2.15 nM.

B2: 10G1 (clone 10G1.3G8), purified hybridoma antibody (antibody, V domains shown)
VH: QIQLVQSGPELKKPGETVKISCKASGYPFTTYGMSWVKQAPGKGLKWMGWINTDSGVPTYADDFKGRFAFSLETSANTAYLQINSLKNEDAATYFCARNIYYGWGNFDYWGQGTILTVSS
VL: DILMTQSPTTLSVTPGETVSLSCRASQDIYRNLHWYQQKSQGTPRLLIKHASDSISGIPSRFTGSGSGTDFTLSINSVKPEDEGIYYCLQGYSMPYTFGGGTKLEIK
notes: murine hybridoma IgG
Q: For B2, which IC50 [1] is on record?
A: The IC50 was 2.59 nM.

B3: mAb1.v7 Fab (Fab, V domains shown)
VH: EVQLVQSGAEVKKPGASVKVSCKASGFTFTNNWMHWVRQAPGQGLEWIGMIHPNSGITNINEKFKNRVTMTTDTSTSTAYMELRSLRSEDTAVYYCRSDGTYEGYFDYWGQGTLVTVSS
VL: DIQLTQSPSSLSASVGDRVTITCKASQNVGTAIVWYQQKPGKAPKVLIYSASTRYTGVPSRFSGSGSGTDFTLTISSLQPEDFATYYCQQYSSSPLTFGQGTKVEIK
Q: With B3 as the binder, how does the “apparent IC50 (pooled screen)” value [2] read?
A: Its value is 0.74 nM.

B4: mAb1.v7.9 Fab (Fab, V domains shown)
VH: EVQLVQSGAEVKKPGASVKVSCKASGFTFTNNWRHWVRQAPGQGLEWIGMIHMNSGITNINEKFKNRVTMTTDTSTSTAYMELRSLRSEDTAVYYCRSDGVYEGYFDYWGQGTLVTVSS
VL: DIQLTQSPSSLSASVGDRVTITCKASQNVGTAIVWYQQKPGKAPKVLIYSASTRYTGVPSRFSGSGSGTDFTLTISSLQPEDFATYYCQQYSSSPLTFGQGTKVEIK
notes: also called M34R/P52aM/T97V
Q: How did the IC50 [2] turn out when B4 was run?
A: The IC50 was 0.42 nM.

B5: mAb1.v7.70 Fab (Fab, V domains shown)
VH: EVQLVQSGAEVKKPGASVKVSCKASGFTFTNRWMHWVRQAPGQGLEWIGMIHANSGITNINEKFKNRVTMTTDTSTSTAYMELRSLRSEDTAVYYCRSDGVYEGYFDYWGQGTLVTVSS
VL: DIQLTQSPSSLSASVGDRVTITCKASQNVGTAIVWYQQKPGKAPKVLIYSASTRYTGVPSRFSGSGSGTDFTLTISSLQPEDFATYYCQQYSSSPLTFGQGTKVEIK
notes: also called N32R/P52aA/T97V
Q: How did the IC50 [2] turn out when B5 was run?
A: Its IC50 is 0.8 nM.

B6: mAb1.v7.16 Fab (Fab, V domains shown)
VH: EVQLVQSGAEVKKPGASVKVSCKASGFTFTNNWRHWVRQAPGQGLEWIGMIHPNSGITNINEKFKNRVTMTTDTSTSTAYMELRSLRSEDTAVYYCRSDGVYEGYFDYWGQGTLVTVSS
VL: DIQLTQSPSSLSASVGDRVTITCKASQNVGTAIVWYQQKPGKAPKVLIYSASTRYTGVPSRFSGSGSGTDFTLTISSLQPEDFATYYCQQYSSSPLTFGQGTKVEIK
notes: also called M34R/T97V
Q: B6 was tested. Which IC50 [2] did it give?
A: The IC50 was 0.8 nM.

B7: mAb1.v7.48 Fab (Fab, V domains shown)
VH: EVQLVQSGAEVKKPGASVKVSCKASGFTFTNRWMHWVRQAPGQGLEWIGMIHHNSGITNINEKFKNRVTMTTDTSTSTAYMELRSLRSEDTAVYYCRSDGVYEGYFDYWGQGTLVTVSS
VL: DIQLTQSPSSLSASVGDRVTITCKASQNVGTAIVWYQQKPGKAPKVLIYSASTRYTGVPSRFSGSGSGTDFTLTISSLQPEDFATYYCQQYSSSPLTFGQGTKVEIK
notes: also called N32R/P52aH/T97V
Q: For B7, which IC50 [2] is on record?
A: Its IC50 is 0.42 nM.

B8: mAb1.v7.2 Fab (Fab, V domains shown)
VH: EVQLVQSGAEVKKPGASVKVSCKASGFTFTNNWRHWVRQAPGQGLEWIGMIHFNSGITNINEKFKNRVTMTTDTSTSTAYMELRSLRSEDTAVYYCRSDGVYEGYFDYWGQGTLVTVSS
VL: DIQLTQSPSSLSASVGDRVTITCKASQNVGTAIVWYQQKPGKAPKVLIYSASTRYTGVPSRFSGSGSGTDFTLTISSLQPEDFATYYCQQYSSSPLTFGQGTKVEIK
notes: also called M34R/P52aF/T97V
Q: For B8, which IC50 [2] is on record?
A: Its IC50 is 0.7 nM.

B9: 9H4, purified hybridoma antibody (antibody, V domains shown)
VH: EVQLLETGGGLVKSGGSLKLSCAASGFTFSDYYMYWVRQTPEKRLEWVAAISDDGTYTYYPDSVKGRFTISRDNANNYLYLQMSSLKSEDTAIYYCAKAGSYDYFDVWGAGTTVTVSS
VL: DIVLTQSPASLAVSLGQRAIISCKASQSVTFADTGLMHWYQQKPGQQPKLLIYRASNLEVGVPTRFSGSGSGTDFTLNIHPVEEEDVATYYCQQSREYPWTFGGGTKLEIK
notes: murine hybridoma IgG
Q: For B9, which IC50 [1] is on record?
A: The IC50 was 2.23 nM.
